Target: Pmel-TCR (mouse)
Assay: flow cytometry, APC-tetramer staining of FACS-sorted 293TREx-CD3-Pmel-TCR cells

Sequence of Pmel-TCR (mouse) (TCR alpha, as listed by the source, form in doubt, chain 1 of 2): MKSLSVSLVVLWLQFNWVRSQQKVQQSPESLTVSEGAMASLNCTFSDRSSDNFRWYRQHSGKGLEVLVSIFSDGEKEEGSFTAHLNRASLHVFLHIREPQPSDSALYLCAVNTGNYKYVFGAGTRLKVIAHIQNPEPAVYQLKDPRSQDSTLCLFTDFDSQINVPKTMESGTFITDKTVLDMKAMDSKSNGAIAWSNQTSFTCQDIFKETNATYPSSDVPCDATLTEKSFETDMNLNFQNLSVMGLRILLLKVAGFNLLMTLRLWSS
Sequence of Pmel-TCR (mouse) (TCR beta, as listed by the source, form in doubt, chain 2 of 2): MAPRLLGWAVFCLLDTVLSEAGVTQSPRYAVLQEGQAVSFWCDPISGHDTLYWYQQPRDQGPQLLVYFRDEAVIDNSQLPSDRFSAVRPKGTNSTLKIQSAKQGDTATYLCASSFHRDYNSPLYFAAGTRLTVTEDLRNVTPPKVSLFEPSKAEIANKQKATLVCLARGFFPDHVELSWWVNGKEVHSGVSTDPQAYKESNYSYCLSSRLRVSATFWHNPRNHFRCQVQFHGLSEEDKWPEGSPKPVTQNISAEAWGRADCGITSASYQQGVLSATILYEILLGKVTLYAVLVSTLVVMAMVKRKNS

percent of cells stained with the tetramers: 81.5%
Substance: APC-streptavidin tetramer of H-2D^b mouse MHC class I molecules loaded with the human gp100 peptide … (from UniProt P01899 25-362) (peptide-MHC)

Reference: patent US20190031733A1
